Key:
[1] = biological target: recombinant FlaB (Vibrio vulnificus MO6-24/O)
[2] = biological target: FlaBΔC1 (truncated FlaB, from M1 to A287) (Vibrio vulnificus MO6-24/O)
[3] = biological target: FlaBΔC0 (truncated FlaB, from M1 to S332) (Vibrio vulnificus MO6-24/O)
[4] = biological target: recombinant FlaB (Vibrio vulnificus MO6-24/O); remark: listed apart in the source
[5] = biological target: FlaBΔN1 (truncated FlaB, from K162 to G377) (Vibrio vulnificus MO6-24/O)
[6] = biological target: FlaBΔN0C0 (truncated FlaB, from L54 to S332) (Vibrio vulnificus MO6-24/O)
[7] = biological target: recombinant FlaB (Vibrio vulnificus MO6-24/O); remark: listed apart in the source
[8] = biological target: recombinant FlaB (Vibrio vulnificus MO6-24/O); remark: listed apart in the source

Substance	protection of 1 μM rFlaB from proteolysis by 1.08 μM rDegQ with rFlaJ 0-6.67 μM; percent of rFlaB left at 0.56 μM FlaJ [1]	averaged EC50 of rDegQ for in vitro proteolysis of 1 μM FlaBΔC1 [2]	averaged EC50 of rDegQ for in vitro proteolysis of 1 μM FlaBΔC0 [3]	averaged EC50 of rDegQ for in vitro proteolysis of 1 μM rFlaB (three independent experiments) [4]	averaged EC50 of rDegQ for in vitro proteolysis of 1 μM FlaBΔN1 [5]	averaged EC50 of rDegQ for in vitro proteolysis of 1 μM FlaBΔN0C0 [6]	EC50 of rDegQ (0-1.2 μM) proteolysing 50% of 1 μM rFlaB in vitro (SDS-PAGE densitometry), representative experiment [7]	averaged EC50 of rDegQ for in vitro proteolysis of 1 μM rFlaB, as given for comparison with the FlaC mutant (Fig. 7b) [8]
recombinant FlaJ (flagellin-specific chaperone) (natural protein)	77%	–	–	–	–	–	–	–
recombinant DegQ (serine protease of the HtrA family) (enzyme)	–	340 nM	310 nM	130 nM	420 nM	320 nM	140 nM	140 nM
